Experimental data published in patent US20240083983A1 (Regeneron, published 2024).

Molecular target: Influenza B hemagglutinin (HA) from B/Florida/4/2006 (Influenza B virus, strain …, UniProt P03463 16-583)

B1: mAb35490 (antibody, human IgG1, kappa, V domains shown)
VH: EVQLVESGGDLVQPGGSLRLSCAASGFTVSSNYMSWVRQVPGKGLDWVSVTYSGGNTYYADSVKGRFTISRHNSKNTLYLQMNSLRIEDTAVYYCATVPSFHGMDVWGQGTTVTVSS
VL: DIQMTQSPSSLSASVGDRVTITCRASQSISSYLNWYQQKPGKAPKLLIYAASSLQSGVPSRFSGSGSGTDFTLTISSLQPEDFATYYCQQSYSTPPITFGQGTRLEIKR
With B1 as the binder, how does the EC50 read?
The EC50 was 761 pM.
